Reference: patent US20030068675, “Position dependent recognition of GNN nucleotide triplets by zinc fingers” (published 2003)

Tests used:
Assay in all cases: EMSA
Settings in all cases: tags: MBP fusion
ZFP SBS#1101 = molecular target: T1, ZFP SBS#1101 (synthetic)
T1 chain: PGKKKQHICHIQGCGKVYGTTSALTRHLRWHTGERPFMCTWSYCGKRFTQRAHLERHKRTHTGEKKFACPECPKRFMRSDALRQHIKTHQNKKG
Method in brief: (§1)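 Purified ZFP was titrated against labeled double-stranded target (1 nM or lower, at least 10-fold below expected Kd) carrying the natural binding site with flanks. Binding buffer was 10 mM Tris pH 7.5, 100 mM KCl, 1 mM MgCl2, 0.1 mM ZnCl2, 5 mM DTT, 10% glycerol, 0.02% BSA, with equilibration for at least 45 min. Bound and free target were separated on a 10% polyacrylamide gel.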

ZFP SBS#1214 = molecular target: T2, ZFP SBS#1214 (synthetic)
T2 chain: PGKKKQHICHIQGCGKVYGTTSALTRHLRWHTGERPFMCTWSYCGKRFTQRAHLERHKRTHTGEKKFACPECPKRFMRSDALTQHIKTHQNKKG
Method in brief: as §1

ZFP SBS#1222 = molecular target: T3, ZFP SBS#1222 (synthetic, UniProt P08047)
T3 chain: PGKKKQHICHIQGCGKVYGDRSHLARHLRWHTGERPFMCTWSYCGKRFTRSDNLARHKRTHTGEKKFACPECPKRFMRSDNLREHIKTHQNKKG
Method in brief: as §1

ZFP SBS#1238 = molecular target: T4, ZFP SBS#1238 (synthetic)
T4 chain: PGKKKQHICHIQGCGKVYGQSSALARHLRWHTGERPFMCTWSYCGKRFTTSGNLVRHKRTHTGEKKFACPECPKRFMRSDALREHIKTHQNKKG
Method in brief: as §1

ZFP SBS#1231 = molecular target: T5, ZFP SBS#1231 (synthetic)
T5 chain: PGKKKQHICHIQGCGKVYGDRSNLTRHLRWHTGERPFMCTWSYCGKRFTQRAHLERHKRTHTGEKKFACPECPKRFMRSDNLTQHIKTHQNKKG
Method in brief: as §1

ZFP SBS#1230 = ZFP SBS#1230 (synthetic)
Sequence of ZFP SBS#1230 (synthetic) (chain, as listed by the source): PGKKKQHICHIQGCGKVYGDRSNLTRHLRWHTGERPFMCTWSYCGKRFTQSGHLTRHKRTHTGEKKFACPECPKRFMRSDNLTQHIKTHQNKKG
Method in brief: as §1

ZFP SBS#1140 = ZFP SBS#1140 (synthetic)
Sequence of ZFP SBS#1140 (synthetic) (chain, as listed by the source): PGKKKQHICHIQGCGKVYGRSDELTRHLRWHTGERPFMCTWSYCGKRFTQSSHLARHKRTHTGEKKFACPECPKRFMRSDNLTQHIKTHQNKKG
Method in brief: as §1

ZFP SBS#1229 = molecular target: T6, ZFP SBS#1229 (synthetic)
T6 chain: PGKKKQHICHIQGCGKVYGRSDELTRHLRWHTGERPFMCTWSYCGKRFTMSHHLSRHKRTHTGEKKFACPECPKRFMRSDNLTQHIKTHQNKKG
Method in brief: as §1

ZFP SBS#1219 = ZFP SBS#1219 (synthetic)
Sequence of ZFP SBS#1219 (synthetic) (chain, as listed by the source): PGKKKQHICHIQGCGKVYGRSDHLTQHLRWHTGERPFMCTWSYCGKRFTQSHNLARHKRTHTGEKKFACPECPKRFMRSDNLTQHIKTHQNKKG
Method in brief: as §1

ZFP SBS#1220 = ZFP SBS#1220 (synthetic)
Sequence of ZFP SBS#1220 (synthetic) (chain, as listed by the source): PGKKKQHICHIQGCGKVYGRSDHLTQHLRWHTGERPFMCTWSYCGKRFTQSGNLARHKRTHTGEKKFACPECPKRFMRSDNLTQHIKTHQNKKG
Method in brief: as §1

ZFP SBS#1221 = ZFP SBS#1221 (synthetic)
Sequence of ZFP SBS#1221 (synthetic) (chain, as listed by the source): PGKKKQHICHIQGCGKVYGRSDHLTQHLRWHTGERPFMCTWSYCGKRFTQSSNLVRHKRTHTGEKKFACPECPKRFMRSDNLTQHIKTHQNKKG
Method in brief: as §1

ZFP SBS#1213 = molecular target: T7, ZFP SBS#1213 (synthetic)
T7 chain: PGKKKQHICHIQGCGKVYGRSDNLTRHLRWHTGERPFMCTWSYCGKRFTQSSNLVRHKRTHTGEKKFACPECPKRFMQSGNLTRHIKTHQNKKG
Method in brief: as §1

ZFP SBS#1215 = ZFP SBS#1215 (synthetic, UniProt P08047)
Sequence of ZFP SBS#1215 (P08047 other isoform, or with tags, fused parts or gaps): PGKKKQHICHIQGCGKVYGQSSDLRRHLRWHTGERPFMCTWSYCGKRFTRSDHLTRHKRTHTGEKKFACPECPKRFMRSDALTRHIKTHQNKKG
Method in brief: as §1

ZFP SBS#938 = ZFP SBS#938 (synthetic, UniProt P08047)
Sequence of ZFP SBS#938 (P08047 other isoform, or with tags, fused parts or gaps): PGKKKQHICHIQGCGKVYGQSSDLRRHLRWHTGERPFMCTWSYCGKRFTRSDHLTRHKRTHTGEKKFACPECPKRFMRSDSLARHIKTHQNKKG
Method in brief: as §1

ZFP SBS#937 = ZFP SBS#937 (synthetic)
Sequence of ZFP SBS#937 (synthetic) (chain, as listed by the source): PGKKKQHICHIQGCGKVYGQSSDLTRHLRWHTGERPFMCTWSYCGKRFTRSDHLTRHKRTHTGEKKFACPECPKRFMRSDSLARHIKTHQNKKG
Method in brief: as §1

ZFP SBS#487 = molecular target: T8, ZFP SBS#487 (synthetic)
T8 chain: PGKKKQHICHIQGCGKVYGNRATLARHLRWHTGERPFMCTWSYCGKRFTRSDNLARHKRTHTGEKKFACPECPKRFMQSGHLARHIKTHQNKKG
Method in brief: as §1

ZFP SBS#485 = ZFP SBS#485 (synthetic)
Sequence of ZFP SBS#485 (synthetic) (chain, as listed by the source): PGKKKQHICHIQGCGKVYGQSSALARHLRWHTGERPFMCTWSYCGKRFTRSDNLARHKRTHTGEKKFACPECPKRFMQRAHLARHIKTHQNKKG
Method in brief: as §1

ZFP SBS#488 = molecular target: T9, ZFP SBS#488 (synthetic)
T9 chain: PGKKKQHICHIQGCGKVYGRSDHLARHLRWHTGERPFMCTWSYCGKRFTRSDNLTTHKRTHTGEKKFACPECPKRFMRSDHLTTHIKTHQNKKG
Method in brief: as §1

ZFP SBS#1212 = molecular target: T10, ZFP SBS#1212 (synthetic, UniProt P08047)
T10 chain: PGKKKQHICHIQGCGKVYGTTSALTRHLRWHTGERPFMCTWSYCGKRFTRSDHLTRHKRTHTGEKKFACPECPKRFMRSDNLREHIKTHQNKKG
Method in brief: as §1

ZFP SBS#1127 = molecular target: T11, ZFP SBS#1127 (synthetic)
T11 chain: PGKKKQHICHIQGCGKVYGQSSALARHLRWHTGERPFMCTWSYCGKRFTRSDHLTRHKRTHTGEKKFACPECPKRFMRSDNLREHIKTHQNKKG
Method in brief: as §1

ZFP SBS#1245 = molecular target: T12, ZFP SBS#1245 (synthetic)
T12 chain: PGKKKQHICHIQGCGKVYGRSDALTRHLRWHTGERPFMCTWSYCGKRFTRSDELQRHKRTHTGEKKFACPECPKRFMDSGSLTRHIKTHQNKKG
Method in brief: as §1

ZFP SBS#1244 = ZFP SBS#1244 (synthetic)
Method in brief: as §1

ZFP SBS#1233 = molecular target: T13, ZFP SBS#1233 (synthetic)
T13 chain: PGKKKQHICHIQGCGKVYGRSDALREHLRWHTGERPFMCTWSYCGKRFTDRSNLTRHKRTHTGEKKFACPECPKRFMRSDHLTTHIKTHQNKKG
Method in brief: as §1

ZFP SBS#1232 = molecular target: T14, ZFP SBS#1232 (synthetic)
T14 chain: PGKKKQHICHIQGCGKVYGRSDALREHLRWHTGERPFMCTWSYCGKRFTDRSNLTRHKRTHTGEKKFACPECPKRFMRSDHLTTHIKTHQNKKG
Method in brief: as §1

ZFP SBS#1227 = ZFP SBS#1227 (synthetic)
Sequence of ZFP SBS#1227 (synthetic) (chain, as listed by the source): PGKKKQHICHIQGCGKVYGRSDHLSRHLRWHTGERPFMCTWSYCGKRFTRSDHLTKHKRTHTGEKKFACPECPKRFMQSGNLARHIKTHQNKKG
Method in brief: as §1

ZFP SBS#1218 = ZFP SBS#1218 (synthetic)
Sequence of ZFP SBS#1218 (synthetic) (chain, as listed by the source): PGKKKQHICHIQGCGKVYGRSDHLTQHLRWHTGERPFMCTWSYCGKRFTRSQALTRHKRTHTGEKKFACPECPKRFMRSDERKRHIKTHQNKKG
Method in brief: as §1

ZFP SBS#1217 = ZFP SBS#1217 (synthetic)
Sequence of ZFP SBS#1217 (synthetic) (chain, as listed by the source): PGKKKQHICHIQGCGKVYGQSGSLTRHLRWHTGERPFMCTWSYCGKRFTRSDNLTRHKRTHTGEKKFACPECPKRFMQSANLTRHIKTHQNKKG
Method in brief: as §1

ZFP SBS#498 = ZFP SBS#498 (synthetic, UniProt P08047)
Sequence of ZFP SBS#498 (P08047 other isoform, or with tags, fused parts or gaps): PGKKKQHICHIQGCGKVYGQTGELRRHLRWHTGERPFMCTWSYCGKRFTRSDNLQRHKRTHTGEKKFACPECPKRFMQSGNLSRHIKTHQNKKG
Method in brief: as §1

ZFP SBS#1150 = ZFP SBS#1150 (synthetic)
Sequence of ZFP SBS#1150 (synthetic) (chain, as listed by the source): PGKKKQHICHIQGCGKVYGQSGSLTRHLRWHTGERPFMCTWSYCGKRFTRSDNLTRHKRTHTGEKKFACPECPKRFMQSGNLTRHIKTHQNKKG
Method in brief: as §1

ZFP SBS#1228 = molecular target: T15, ZFP SBS#1228 (synthetic)
T15 chain: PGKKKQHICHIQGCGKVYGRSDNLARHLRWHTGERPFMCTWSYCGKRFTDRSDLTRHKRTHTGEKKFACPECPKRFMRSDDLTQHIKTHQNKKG
Method in brief: as §1

ZFP SBS#1139 = molecular target: T16, ZFP SBS#1139 (synthetic)
T16 chain: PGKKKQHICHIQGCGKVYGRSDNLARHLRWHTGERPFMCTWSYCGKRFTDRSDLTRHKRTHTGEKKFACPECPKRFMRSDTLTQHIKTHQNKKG
Method in brief: as §1

ZFP SBS#1243 = molecular target: T17, ZFP SBS#1243 (synthetic)
T17 chain: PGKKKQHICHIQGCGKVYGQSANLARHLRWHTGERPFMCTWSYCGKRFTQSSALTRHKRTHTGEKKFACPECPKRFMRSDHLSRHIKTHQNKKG
Method in brief: as §1

ZFP SBS#1242 = molecular target: T18, ZFP SBS#1242 (synthetic)
T18 chain: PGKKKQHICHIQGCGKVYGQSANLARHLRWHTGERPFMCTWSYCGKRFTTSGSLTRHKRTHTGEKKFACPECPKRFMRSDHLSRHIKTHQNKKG
Method in brief: as §1

ZFP SBS#1240 = molecular target: T19, ZFP SBS#1240 (synthetic, UniProt P08047)
T19 chain: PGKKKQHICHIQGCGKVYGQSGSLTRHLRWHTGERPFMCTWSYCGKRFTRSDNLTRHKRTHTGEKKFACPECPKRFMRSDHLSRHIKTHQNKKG
Method in brief: as §1

ZFP SBS#1224 = molecular target: T20, ZFP SBS#1224 (synthetic)
T20 chain: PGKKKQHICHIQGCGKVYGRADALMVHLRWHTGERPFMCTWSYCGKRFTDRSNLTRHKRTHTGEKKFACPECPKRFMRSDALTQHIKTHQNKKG
Method in brief: as §1

ZFP SBS#1223 = molecular target: T21, ZFP SBS#1223 (synthetic)
T21 chain: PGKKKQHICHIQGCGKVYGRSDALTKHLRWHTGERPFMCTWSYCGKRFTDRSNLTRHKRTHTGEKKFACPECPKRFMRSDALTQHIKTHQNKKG
Method in brief: as §1

ZFP SBS#1141 = molecular target: T22, ZFP SBS#1141 (synthetic)
T22 chain: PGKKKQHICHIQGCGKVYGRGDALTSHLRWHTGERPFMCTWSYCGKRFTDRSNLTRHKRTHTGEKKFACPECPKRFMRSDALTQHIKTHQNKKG
Method in brief: as §1

B1: ATGGGAGTT (dsDNA)
DNA 1: ATGGGAGTT
DNA 2: AACTCCCAT
Which Kd (ZFP SBS#1101) does the source give for B1 here?
Its Kd is 0.065 nM.

What about the Kd (ZFP SBS#1214) of the same binder?
The Kd was 0.46 nM.

B2: CAGGAGGGC (dsDNA)
DNA 1: CAGGAGGGC
DNA 2: GCCCTCCTG
With B2 as the binder, how does the Kd (ZFP SBS#1222) read?
Its Kd is 0.155 nM.

B3: CTGGATGTT (dsDNA)
DNA 1: CTGGATGTT
DNA 2: AACATCCAG
Which Kd (ZFP SBS#1238) does the source give for B3 here?
The Kd was 0.313 nM.

B4: AAGGGAGAC (dsDNA)
DNA 1: AAGGGAGAC
DNA 2: GTCTCCCTT
Which Kd (ZFP SBS#1231) does the source give for B4 here?
The Kd was 0.213 nM.

And the Kd (ZFP SBS#1230)?
The Kd was 0.383 nM.

B5: AAGGGTGCG (dsDNA)
DNA 1: AAGGGTGCG
DNA 2: CGCACCCTT
For B5, which Kd (ZFP SBS#1140) is on record?
Its Kd is 0.3 nM.

And the Kd (ZFP SBS#1229)?
The Kd was 8.2 nM.

B6: AAGGAAAGG (dsDNA)
DNA 1: AAGGAAAGG
DNA 2: CCTTTCCTT
B6 was tested. Which Kd (ZFP SBS#1219) did it give?
The Kd was 0.68 nM.

And the Kd (ZFP SBS#1220)?
The Kd was 0.175 nM.

What about the Kd (ZFP SBS#1221) of the same binder?
Its Kd is 1.4 nM.

B7: GAAGAAGAG (dsDNA)
DNA 1: GAAGAAGAG
DNA 2: CTCTTCTTC
Which Kd (ZFP SBS#1213) does the source give for B7 here?
The Kd was 12.3 nM.

B8: GTGGGGGCT (dsDNA)
DNA 1: GTGGGGGCT
DNA 2: AGCCCCCAC
Which results are given for B8?
Kd (ZFP SBS#1215): 3 pM; Kd (ZFP SBS#938): 0.049 nM; Kd (ZFP SBS#937): 0.03 nM

B9: GGAGAGGTTT (dsDNA)
DNA 1: GGAGAGGTTT
DNA 2: AAACCTCTCC
For B9, which Kd (ZFP SBS#487) is on record?
The Kd was 76.9 nM.

And the Kd (ZFP SBS#485)?
Its Kd is 110 nM.

B10: TGGTAGGGGG (dsDNA)
DNA 1: TGGTAGGGGG
DNA 2: CCCCCTACCA
With B10 as the binder, how does the Kd (ZFP SBS#488) read?
The Kd was 35 nM.

B11: CAGGGGGTT (dsDNA)
DNA 1: CAGGGGGTT
DNA 2: AACCCCCTG
With B11 as the binder, how does the Kd (ZFP SBS#1212) read?
Its Kd is 0.05 nM.

And the Kd (ZFP SBS#1127)?
Its Kd is 0.1 nM.

B12: GTCGCGGTG (dsDNA)
DNA 1: GTCGCGGTG
DNA 2: CACCGCGAC
B12 was tested. Which Kd (ZFP SBS#1245) did it give?
The Kd was 0.102 nM.

What about the Kd (ZFP SBS#1244) of the same binder?
Its Kd is 0.044 nM.

B13: TGGGACCTG (dsDNA)
DNA 1: TGGGACCTG
DNA 2: CAGGTCCCA
What does the source list for B13?
Kd (ZFP SBS#1233): 0.635 nM; Kd (ZFP SBS#1232): 0.113 nM

B14: GAATAGGGG (dsDNA)
DNA 1: GAATAGGGG
DNA 2: CCCCTATTC
How did the Kd (ZFP SBS#1227) turn out when B14 was run?
Its Kd is 25 nM.

B15: GCGGTGAGG (dsDNA)
DNA 1: GCGGTGAGG
DNA 2: CCTCACCGC
How did the Kd (ZFP SBS#1218) turn out when B15 was run?
The Kd was 0.46 nM.

B16: GAAGAGGCA (dsDNA)
DNA 1: GAAGAGGCA
DNA 2: TGCCTCTTC
With B16 as the binder, how does the Kd (ZFP SBS#1217) read?
Its Kd is 4 pM.

What about the Kd (ZFP SBS#498) of the same binder?
The Kd was 30 nM.

What about the Kd (ZFP SBS#1150) of the same binder?
The Kd was 4 pM.

B17: ACGGCCGAG (dsDNA)
DNA 1: ACGGCCGAG
DNA 2: CTCGGCCGT
B17 was tested. Which Kd (ZFP SBS#1228) did it give?
The Kd was 12 nM.

And the Kd (ZFP SBS#1139)?
The Kd was 0.535 nM.

B18: GGGGTTGAA (dsDNA)
DNA 1: GGGGTTGAA
DNA 2: TTCAACCCC
What does the source list for B18?
Kd (ZFP SBS#1243): 0.101 nM; Kd (ZFP SBS#1242): 0.02 nM

B19: GGGGAGGCA (dsDNA)
DNA 1: GGGGAGGCA
DNA 2: TGCCTCCCC
For B19, which Kd (ZFP SBS#1240) is on record?
Its Kd is 0.056 nM.

B20: ATGGACTTG (dsDNA)
DNA 1: ATGGACTTG
DNA 2: CAAGTCCAT
For B20, which Kd (ZFP SBS#1224) is on record?
Its Kd is 12 nM.

What about the Kd (ZFP SBS#1223) of the same binder?
Its Kd is 7 nM.

What about the Kd (ZFP SBS#1141) of the same binder?
Its Kd is 1.7 nM.
